Experiments:
[1] = molecular target: T1, antigenic peptide of amino acid sequence at positions 106-126 of a heavy chain of HLA-G molecules … (human); test: ELISA, peptide coated at 2 ug/ml, antibody stock 3.0 mg/mL titrated
T1 construct: Synthesized peptide, coated on ELISA plates at 2 ug/ml; also called immunogen
T1 peptide: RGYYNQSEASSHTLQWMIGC
Method: (§1) The antigen (SEQ No. 17 [sequence]) was diluted with the coating buffer, with the final concentration of 2 μg/ml, 100 ul/well, and placed at 4° C. overnight; washed with the wash buffer twice, blocked with the blocking buffer at 200 ul/well, incubated at 37° C. for 2 hours; then washed once with the wash buffer. The purified antibody was diluted by 2-fold starting from 200-fold (PBS), and the blank control (blank) was PBS, 100 ul/well, and incubated at 37° C. for 1 hour; and then washed 3 times with the wash buffer. The secondary antibody diluted with PBS by 20,000-fold was added, 100 ul/well, and incubated in a 37° C. incubator for 1 hour; taken out and washed 3 times with a wash buffer. Then the color development was performed with a developing solution of 100 ul/well for 5-15 minutes. Then 50 ul of stop solution was added to each well to stop. The absorbance value was measured at dual wavelengths (450, 630), and a chart was drawn for analysis.

HLA-G6 standard protein = molecular target: T2, HLA-G6 standard protein (human, UniProt P17693-6 25-227, limits assumed); test: immunoblotting of standard proteins after denaturing PAGE
T2 construct: Standard protein run on denaturing PAGE for immunoblotting
Method: (§2) The denaturing PAGE electrophoresis of the standard proteins of HLA-G isoforms (HLA-G1, HLA-G2, HLA-G3, HLA-G4, HLA-G5, HLA-G6 and HLA-G7) was performed. After semi-dry electroporating, 5% skimmed milk powder was used to block at room temperature for 4 hours, and washed with 0.2% TBS (Tween-20 PBS).

HLA-G2 standard protein = molecular target: T3, HLA-G2 standard protein (human, UniProt P17693-2 25-246, limits assumed); test: as above
T3 construct: Standard protein run on denaturing PAGE for immunoblotting
Method: as §2

HLA-G3 standard protein = molecular target: T4, HLA-G3 standard protein (human, UniProt P17693-3 25-154, limits assumed); test: as above
T4 construct: Standard protein run on denaturing PAGE for immunoblotting
Method: as §2

HLA-G7 standard protein = molecular target: T5, HLA-G7 standard protein (human, UniProt P17693-7 25-116, limits assumed); test: as above
T5 construct: Standard protein run on denaturing PAGE for immunoblotting
Method: as §2

[2] = molecular target: T1, antigenic peptide of amino acid …; test: ELISA, peptide coated at 2 ug/ml, antibody titrated; logistic fit
Method: as §1

B1: monoclonal antibody (YWHG-4) against HLA-G isoforms (HLA-G1, HLA-G4, HLA-G5) (antibody, V domains shown)
VH: VQLQQSGAEVVRPGTSVKVSCKASGYASTNYLVEWIKQRPGQGLEWIGVINPGSGRIYYSEKFKGKTTLTADKSSSNAYMQLSSLTSDDSAVYFCARHYGNSAWFAYWGQGTLVTVSA
VL: DIVITQDELSLPVSLGDQAAISCRSSQSIVHSNGNTYLEWYLQKPGQSPKLLIYKVSNRFSGVPDRFRGSGSGTDFTLKISRVEAEDLGVYYCFQASHVPYTFGGGTKLEIKR
notes: FITC-labeled in the flow cytometry; also called hybridoma CCTCC NO: 2021204
[1]
  antibody dilution factor corresponding to 1/2 OD value: 197000 fold dilution
HLA-G6 standard protein
  binding result: no binding
HLA-G2 standard protein
  binding result: no binding
HLA-G3 standard protein
  binding result: no binding
HLA-G7 standard protein
  binding result: no binding
[2]
  Ka: 9.87e+09 M⁻¹

Source: US20250289892A1 (TAIZHOU ENZE MEDICAL CENTER GROUP, published 2025)
